Laboratory results taken from the domain aggregation screens of Martell et al. (2025).

Test: soluble fraction after stress (log2 fold change); higher = more stays soluble; pooled small domains, quantitative proteomics
Settings: stress: pH 4
Method in brief: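 Pooled custom libraries of small protein domains were stressed at pH 4 and then measured by high-throughput quantitative proteomics. The fold change in the amount of each domain that stays soluble after the acid stress serves as a measure of aggregation propensity. Fold changes are given on a log2 scale, and higher values mean more of the domain stayed soluble.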

Sequence	soluble fraction (log2)
HMAKPAALLFEHRFDGMAEMRFRENIVKNDDGSYTYDEYFLSMLDRAGLEKIVQENMEVWIAYAKQ	-1.42
HMGEVISRSYPLLKTKAKPAEVSEALQKLIKAPATVTFDEKNEVFHINATRLQHTWAEGYFKGLHGK	-0.172
HMETMSGTVKWFNTQKGYGFITGDDGAEYFAHQTQIKMDGFRTLDAGDIVEFDVRSEEKGLAAVNIVP	-0.707
HMEDTFEYPVSVNGKLRFKIELPVSMEKDEIRNIVLNDERAKKWLATGTLTNLIVVPNRIINIVIK	0.0025
HMQQDVLKLKSGGNYKGEYINIESAYVLFKPEGGNATQRIKVNEIQMLKLADGTEVIFGGRVK	0.297
HMAHKYYSIMRPVSIGTFPDNGTILGIVNFDTRQMVESIGKMAWGYINYGKPLTEKQISDYELVAE	0.361
HMSMPTITLQHYKRGSHYYASIIETFRDPVTRKNSSRTLEALGDISEKMKEDPNYLQSLKDRVKALRSD	0.156
HMIELEGVISSVLAGTMFKVKLRGNGHEVLAHISGKMRKKFIRLVIGDAVKIEMSPYDMDKARIVYRI	0.269
HMDAPKTGSLVVSKAVNYGSWSGFTFRLHGTSDKGNSVDVTATTGSDGKAYFKDIEIGTYTLEEVN	-1.19
HMFPDLTEDEQLIVDVLQRTGDLQINSLIVEANIPVNKMSEILFELEMKGVIRTLAGGVYQLL	-1.84
HMSSKIKYSEFITMLDKGEVESVVLKSDTLTITLKHGTGVAAQTKTTTLMEDLSELTKRLEKAGIKDFDK	0.22
HMLENYEGFKQKILKLTGIDLSSYKERQMRRRIDSLIHRNNYDDYDEYFKALTQNSNLYDEFINYLTI	-0.424
HMTVPMKILILEDEQRNAMRLIRLLNDIDTTFIIEGPLTNIKEAVDFFQSGKTTDLILADIRL	-0.489
HMVKLQATPSQRKTLDELYVQLKKLEPTAKEDLSLLRRLENSHLVSKQEAQGLISKAIGRVGALAVEQQP	0.0541
HMRALPFSFANRHGVLIREISDGVAHAVYRIGSSPLGLAEARRFVGMPLMLTPVAREAFDSLLQQTYEQG	-0.612
HMISKRFQIDEDNSNKRIDIFLTQSLDSISRGIVQQLILENKVEVNGGPVKRNYLIKIGDVIDVKIDL	-0.608
HMLKDGPIGAYADSVIRDIIEKMERFSKEHINVDMLKIHEKIMLIDEPIIRMALLDEFHRVSHDN	-1.2
HMFEYDEEEYEKLGPNADLTIKSMTDWGQSLVRKGVWSESDFEEFKIMGGTAQGLRALQKVRSYY	-1.25
HMPKTATIVIDLNYADAKEIVENLQTILAGETKDISVAPHPSANQIIASGDRWEVENISTIIKQLDR	-1.02
HMARGRETILLVEDEPAVRGLVHATLRLHGYTVLEARHGIEALLTSTKFVGPIHLLLTDVVMPQMS	0.265
HMYGTERILAQLANYGIPNKLAFQIQDFYKEETLQIVEQQPYRLVEDIQGMGFKIADQLAEELGI	-1.35
HMDATIGGFKITDSAIYSGVKNNVNAGVRGTYIDKDGQIAFGDSNSYLKYYKDTDGKWKLEVSASSVKF	-0.476
HMHTNNALWAIADDMRARKDDGEFDTYREGYKWAANNIVKEGIHITAIKLEKAYHKAKSEGKV	0.301
HMFQTAADVAYRIISQKILDGEFPPGMKLSRRKMAEVTSVSVIPVIEALKKLEEDGLVESKPQWGSFVTI	-0.246
HMGMVKLNEEYLEKVKKHRKELHITQLQISKKLGWSLSRYQRFESGFYKEIEDDAPKKIKEEFGIDYSLL	-0.231
HMVEVPNVSNLTLEQAENKLIQQGLQVKLEGQGEKVVAQIPQPGAVVNKKSTVILF	0.0373

Sequence	soluble fraction (log2)
HMNMTDVLVVNQTVRGGTQITESMLSVKKVDKSSLPDNYLKASLKDEVVGKYFDLGLTSGGVLTKDNISVS	0.104
HMEYTTEELDSLLKLYFQTHESINRNEFEQLTSYTRTTASRRLKTLVQAGKLQNIGLYRFPVYKPTEGNF	-0.037
HMDGPGAGGRFLAEDLGTGKMTLEALQRHYVTLVYSRTGKYEETARRLEIDRRTVKKYLDEELLAELRET	-0.0817
HMAVSSHAVKQRIRSLIQAEDPAAPLSDEALRLALSALGVDVSRRVIAKYRAELNIPSSSQRKK	0.213
HMQVSDVTTIRALVEEVLSSSPQQLAQYRAGKLSLKGYFVGQVMKKGKGQLNAAAVNNLLDEIL	0.36
HMSDRLRLGRRIRAARLEQNLSQAALAERLGISASYLNLLEHDRRSLTTVLLLKLAQVLGLELRDLAAG	0.0304
HMDDPITVAYRETEDAIAQVQREGFPVEMPPANSYIRRIQHELAGRFNLDSESYGDEPERRVRIRPQQ	-0.92
HMTDSDTQDIDVGELRVGHFVFLDLSWIRHPFPLSSFKIQSAEQIKTIRSLGLRRIRYSPGRSGP	-0.882
HMDRQIQITVAENEAGQRLDAFLAAKIPDMSRSYIQKLIEDGLILVNGQSTKGKVKTYSGMNIEVYMPE	0.22
HMDIDLGAVEEQAVKGSGPGGQKMNKTSSGVLLRYRLGEELVLVKWTRERQHSLNRFLALRELVDEIEAR	-0.099
HMENIDVGQDYKVTMNTIQNLMKTGLVTGTQYKELLREMGVHSGMGAITAQQHQIALDFLNKTMDSA	-0.444
HMDFMNSEIKKIVEDLKLTLQSLNYTKNEIKSILPVINKETDNLIKKEKYASFENLLRLAMNHLDNN	-0.929
HMDVNHVIIDHKGNSIQAIIDSIDLDNVYYQSKIKKESEVIDIDKVYFIFNDFDRVYHYDWSYYENL	-0.468
HMSNEITVPDLSGMSLEELETILSDRSLSYEIIDSIYNSTAKKGTVSSQDPLPDAKVKSGRTIYITVVSKL	-1.31
HMFPATAPQLKAVHAILGKQGISDELDKLARVNEWLVGLNKEPVAAISELDKHTTSGLIDHLQGELNE	-0.131
HMQRAEQLPAELAAVFRAETEAWGFFERQPPGYQRVAIHWVASAKQEATRLRRLAKLIEESAAGRR	-1.43
HMKIPYGELIKLLNAAAPKLQDAQGWMDMEAAGQFIGSRWSYLDYGFKDWPDSFKTVHGLEIQGQRMRLA	-0.306
HMLADRANMAPAALRQIMTAIDGGNVTPKQIESATGMAHATVARALRKMLDDGLIANDGKGRYTVLT	0.238
HMDNPVPVIITDQNFQPQLWKNVGVPTDTLFHELSAANQRKLENLMKTMIQTPLTDNGKISGYAFYSK	0.152
HMTNVFSIIGKKALVIKDIDPIHSSGQIKLNGEVWSAETENDEIIKEGSEVEVLKINGVKAIVKLV	0.149
HMAKPVNISAEPYHYDPTRFRVTFELPRLSDQPRKRIRKVAPAGLDREQALAWAKRLEREVLHELLR	-0.144
HMSNEYLMPNLIGMSWDEAKSKYSQYMTLVPEQEWSEVTKDQIFDQEYPEGRKVKIGTEVTVKVSMGI	0.228
HMLADTNIHTIALKHRLANEVVEQVRPFLPETATIRAYDNMLILKSDRATLANVEQLIKKLDT	0.228
HMVLSVRDRMVQILDQVKTGEYKRIEDFFSADEGRTGFVVSFVAILELVKGGLLTITQSKNLAPIYVRLPN	-0.108
HMAASGTVNSGGDPLRVRADPNTSSQILTKLSDGTQVEVLEQAENGWYKIAHEGISGFVSGEYLVVH	-0.356
HMSETAEFIIQVNGKVRAKLQLPTDISKEEIQKLALADENVQKYLNGEPRKIIFPPNTRLVSIV	-0.0446

Sequence	soluble fraction (log2)
HMPTQGELAILRVLWEQGPSTVRAVWEKLNSQSGTGYTTALKLMQIMAQKGLVSRDESQKTHVYRA	-0.511
HMISRKIKELRLSHDLTQKDLADYLNLTPKMVSFYELGQRVPPSDIILKLAEKFHVSTDYLLGNEDRP	-0.126
HMVYVPTKAEVSQQFQDASKARFDERYAIVELADGRRTMAPLAFLTKADHAWLKQLASTSPLPKGK	0.0133
HMSFSSLSNDILSEIQKDNNITYDELSEKLQKDRATIYRNMKKLVENGLLKRVGGRKSGHWEIIE	≥ 0.43
HMEDEEILNEIRHTEQYVYYFGNYIMEHHVSRGLSKEKVIASLARELQIEIADIREDFDGMIEQIKTNILN	-0.416
HMQRDTIAISAIPTAIKTYLSSTYPTDTLVHAFVNKDQSIVVISKNIDFYATSFSTANAFIKRIQLPA	0.156
HMPTLLGYKHILSAWNPDTNTVFRTSYGYDGEYGSREEAMQALIKMIQEGGKATPRGIEESEVPIY	0.0029
HMRLSPTMVETLIAMLNRNAYPAYENNSRTFASLEERGLIQPDIEGNWSLTDTGHQTALKLLK	0.0279
HMTFVHTQIEATKEWIISHPLDKHPAVAVVDSAGSIVIGEVDYISKSIVRLRFTAEFSGKAYL	-1.79
HMEKYTDDLEIAAEIARLETLMEGNGRVLIRPSGTEPLVRVMIEGNDIEQITKLAEDLAALLNKRF	-0.842
HMSFPDTYFKGNKVIGLSYNDLKKFLNNAGYSKFDEEVEEWGEKRVSIEDDMVDFYLEDDKVVSI	-0.356
HMEEIPYGVISAKAGAAAYDYIKKSIELGIEKKIDGVATAPIQKEAIHMAGISYIGHTEMYQGIT	0.0683
HMQGIPVTVTAERANLRSGPGTSFDKLGQVVQGDVLTLLEVQNDWYKVKTAEGKTAFVAAYLVNSP	0.0179
HMSGITDIITDGKATSRPVVVTDGGHIRVLSPYTSFAIYTLGGMSLPTESRLEPGIYIVVVDSNAVKVAV	-0.408
HMSGPMVPNVVGLSEEMARALLSDYSITIKHAHDGVIPKDRVASQLPLATTHAKVGSSVVLTIS	0.238
HMSGPDGLTEREIEVLRLLASGLSNRAIGERLYISTNTAANHVRSILLKTGAANRTQAAMYAADHEML	0.0798
HMSEYIFGKNVVKEAFNNPSRIEEIYVLDKNMEFVSLAKKYHIKYTVITSSEMNKMVSGNHQGVVALVK	-0.264
HMSPKYLELVRWINTQIQEKKLTAGQKMYSENELKEMFGVSRQTVRHAISVLEGEGMIRRVRGSGTYINDN	-0.043
HMINKQPKDYEYFLEKWHFTQTEKHQLHNLILKLNIRYPNKDFLKITENLDNGKLVLKKLEERLSKT	-0.7
HMGIRDIHITVNGESLKLSKKQNYIFVDIFDFYPFDLSILGGSKLITTINGEQAEFTSPLKDGDVVELYWK	-0.977
HMDWVAYGAELRRRRLLAGWSVAELSRRTNLSTSIIYQVEQARTRLRPSQLTLAKLAAALGMP	-0.0217
HMDVPNLVGEEIKDVRRTLRHFQLEVIGEGSKIVSQVPKHGQRLPENTTIRVYLN	-0.0434
HMISDQENDLNLKHLFDTADQNKDGLILESELKMLMTNLEINKETYDTVMKQITPAGMDYKTFSSL	-0.584
HMSKKTQKDEVVDLFLKTGNEPLHYKEISKKTGIIVHNVRRITGQNVVGKTDNPVFKRVSPGVYKLID	-0.0395
